Measured values as given in US20250361268A1, “NOVEL ANTI-INFLAMMATORY PEPTIDE AND USE THEREOF” (NOVACELL TECHNOLOGY INC., priority 2022, published 2025).

T1: FPR1 (UniProt P21462 1-350, limits assumed)
T1 sequence (looked up): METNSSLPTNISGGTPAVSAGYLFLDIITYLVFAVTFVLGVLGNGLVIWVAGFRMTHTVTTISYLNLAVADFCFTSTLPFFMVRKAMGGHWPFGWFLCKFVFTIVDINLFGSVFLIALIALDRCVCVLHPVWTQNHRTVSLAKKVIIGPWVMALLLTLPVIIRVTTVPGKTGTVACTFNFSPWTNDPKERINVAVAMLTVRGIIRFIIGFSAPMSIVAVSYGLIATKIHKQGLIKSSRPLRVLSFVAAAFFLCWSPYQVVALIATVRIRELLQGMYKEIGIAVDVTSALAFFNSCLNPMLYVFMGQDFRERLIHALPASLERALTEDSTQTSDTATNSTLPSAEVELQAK

T2: formyl peptide receptor 2 (FPR2) (UniProt P25090 1-351, limits assumed)
T2 sequence (looked up): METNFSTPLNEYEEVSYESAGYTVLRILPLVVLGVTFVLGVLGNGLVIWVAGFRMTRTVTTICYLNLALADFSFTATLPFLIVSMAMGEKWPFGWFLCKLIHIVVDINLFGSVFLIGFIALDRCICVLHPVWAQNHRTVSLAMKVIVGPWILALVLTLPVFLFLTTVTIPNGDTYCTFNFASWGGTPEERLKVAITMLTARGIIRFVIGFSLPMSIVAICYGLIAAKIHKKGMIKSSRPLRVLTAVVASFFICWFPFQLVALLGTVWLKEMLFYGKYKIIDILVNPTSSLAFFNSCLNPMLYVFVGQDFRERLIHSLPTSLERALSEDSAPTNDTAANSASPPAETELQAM

B1: peptide of SEQ ID NO 136 (peptide)
peptide: IKYKVM
HELM: PEPTIDE1{[CCCC(=O)[*:2]].I.K.Y.K.V.[dM].[am]}$$$$V2.0
SMILES: CCCC(=O)N[C@H](C(=O)N[C@@H](CCCCN)C(=O)N[C@@H](Cc1ccc(O)cc1)C(=O)N[C@@H](CCCCN)C(=O)N[C@H](C(=O)N[C@H](CCSC)C(N)=O)C(C)C)[C@@H](C)CC
B2: peptide of SEQ ID NO 127 (peptide)
peptide: HMKYYYM
HELM: PEPTIDE1{[CCCC(=O)[*:2]].H.M.K.Y.Y.Y.[dM].[am]}$$$$V2.0
SMILES: CCCC(=O)N[C@@H](Cc1c[nH]cn1)C(=O)N[C@@H](CCSC)C(=O)N[C@@H](CCCCN)C(=O)N[C@@H](Cc1ccc(O)cc1)C(=O)N[C@@H](Cc1ccc(O)cc1)C(=O)N[C@@H](Cc1ccc(O)cc1)C(=O)N[C@H](CCSC)C(N)=O
B3: peptide of SEQ ID NO 133 (peptide)
peptide: IKFKPM
HELM: PEPTIDE1{I.K.F.K.P.[dM].[am]}$$$$V2.0; N-terminus assumed
SMILES: CC[C@H](C)[C@H](N)C(=O)N[C@@H](CCCCN)C(=O)N[C@@H](Cc1ccccc1)C(=O)N[C@@H](CCCCN)C(=O)N1CCC[C@H]1C(=O)N[C@H](CCSC)C(N)=O
B4: peptide of SEQ ID NO 92 (peptide)
peptide: HMRYWYM
HELM: PEPTIDE1{[ac].H.M.R.Y.W.Y.[dM].[am]}$$$$V2.0
SMILES: CSCC[C@H](NC(=O)[C@H](Cc1c[nH]cn1)NC(C)=O)C(=O)N[C@@H](CCCNC(=N)N)C(=O)N[C@@H](Cc1ccc(O)cc1)C(=O)N[C@@H](Cc1c[nH]c2ccccc12)C(=O)N[C@@H](Cc1ccc(O)cc1)C(=O)N[C@H](CCSC)C(N)=O
B5: peptide of SEQ ID NO 138 (peptide)
peptide: PKYKVM
HELM: PEPTIDE1{P.K.Y.K.V.[dM].[am]}$$$$V2.0; N-terminus assumed
SMILES: CSCC[C@@H](NC(=O)[C@@H](NC(=O)[C@H](CCCCN)NC(=O)[C@H](Cc1ccc(O)cc1)NC(=O)[C@H](CCCCN)NC(=O)[C@@H]1CCCN1)C(C)C)C(N)=O
B6: peptide of SEQ ID NO 134 (peptide)
peptide: IKYKVM
HELM: PEPTIDE1{I.K.Y.K.V.[dM].[am]}$$$$V2.0; N-terminus assumed
SMILES: CC[C@H](C)[C@H](N)C(=O)N[C@@H](CCCCN)C(=O)N[C@@H](Cc1ccc(O)cc1)C(=O)N[C@@H](CCCCN)C(=O)N[C@H](C(=O)N[C@H](CCSC)C(N)=O)C(C)C
B7: peptide of SEQ ID NO 139 (peptide)
peptide: PKYKVM
HELM: PEPTIDE1{[ac].P.K.Y.K.V.[dM].[am]}$$$$V2.0
SMILES: CSCC[C@@H](NC(=O)[C@@H](NC(=O)[C@H](CCCCN)NC(=O)[C@H](Cc1ccc(O)cc1)NC(=O)[C@H](CCCCN)NC(=O)[C@@H]1CCCN1C(C)=O)C(C)C)C(N)=O
B8: peptide of SEQ ID NO 135 (peptide)
peptide: IKYKVM
HELM: PEPTIDE1{[ac].I.K.Y.K.V.[dM].[am]}$$$$V2.0
SMILES: CC[C@H](C)[C@H](NC(C)=O)C(=O)N[C@@H](CCCCN)C(=O)N[C@@H](Cc1ccc(O)cc1)C(=O)N[C@@H](CCCCN)C(=O)N[C@H](C(=O)N[C@H](CCSC)C(N)=O)C(C)C
B9: peptide of SEQ ID NO 146 (peptide)
peptide: HKYKPM
HELM: PEPTIDE1{H.K.Y.K.P.[dM].[am]}$$$$V2.0; N-terminus assumed
SMILES: CSCC[C@@H](NC(=O)[C@@H]1CCCN1C(=O)[C@H](CCCCN)NC(=O)[C@H](Cc1ccc(O)cc1)NC(=O)[C@H](CCCCN)NC(=O)[C@@H](N)Cc1c[nH]cn1)C(N)=O
B10: peptide of SEQ ID NO 125 (peptide)
peptide: RMRYYYM
HELM: PEPTIDE1{[ac].R.M.R.Y.Y.Y.[dM].[am]}$$$$V2.0
SMILES: CSCC[C@H](NC(=O)[C@H](CCCNC(=N)N)NC(C)=O)C(=O)N[C@@H](CCCNC(=N)N)C(=O)N[C@@H](Cc1ccc(O)cc1)C(=O)N[C@@H](Cc1ccc(O)cc1)C(=O)N[C@@H](Cc1ccc(O)cc1)C(=O)N[C@H](CCSC)C(N)=O
B11: peptide of SEQ ID NO 140 (peptide)
peptide: PKYKVM
HELM: PEPTIDE1{[CCCC(=O)[*:2]].P.K.Y.K.V.[dM].[am]}$$$$V2.0
SMILES: CCCC(=O)N1CCC[C@H]1C(=O)N[C@@H](CCCCN)C(=O)N[C@@H](Cc1ccc(O)cc1)C(=O)N[C@@H](CCCCN)C(=O)N[C@H](C(=O)N[C@H](CCSC)C(N)=O)C(C)C
B12: peptide of SEQ ID NO 123 (peptide)
peptide: RWRYYYM
HELM: PEPTIDE1{R.W.R.Y.Y.Y.[dM].[am]}$$$$V2.0; N-terminus assumed
SMILES: CSCC[C@@H](NC(=O)[C@H](Cc1ccc(O)cc1)NC(=O)[C@H](Cc1ccc(O)cc1)NC(=O)[C@H](Cc1ccc(O)cc1)NC(=O)[C@H](CCCNC(=N)N)NC(=O)[C@H](Cc1c[nH]c2ccccc12)NC(=O)[C@@H](N)CCCNC(=N)N)C(N)=O
B13: peptide of SEQ ID NO 142 (peptide)
peptide: IKYKPM
HELM: PEPTIDE1{I.K.Y.K.P.[dM].[am]}$$$$V2.0; N-terminus assumed
SMILES: CC[C@H](C)[C@H](N)C(=O)N[C@@H](CCCCN)C(=O)N[C@@H](Cc1ccc(O)cc1)C(=O)N[C@@H](CCCCN)C(=O)N1CCC[C@H]1C(=O)N[C@H](CCSC)C(N)=O
B14: peptide of SEQ ID NO 144 (peptide)
peptide: IKYKPM
HELM: PEPTIDE1{[CCCC(=O)[*:2]].I.K.Y.K.P.[dM].[am]}$$$$V2.0
SMILES: CCCC(=O)N[C@H](C(=O)N[C@@H](CCCCN)C(=O)N[C@@H](Cc1ccc(O)cc1)C(=O)N[C@@H](CCCCN)C(=O)N1CCC[C@H]1C(=O)N[C@H](CCSC)C(N)=O)[C@@H](C)CC
B15: peptide of SEQ ID NO 143 (peptide)
peptide: IKYKPM
HELM: PEPTIDE1{[ac].I.K.Y.K.P.[dM].[am]}$$$$V2.0
SMILES: CC[C@H](C)[C@H](NC(C)=O)C(=O)N[C@@H](CCCCN)C(=O)N[C@@H](Cc1ccc(O)cc1)C(=O)N[C@@H](CCCCN)C(=O)N1CCC[C@H]1C(=O)N[C@H](CCSC)C(N)=O
B16: peptide of SEQ ID NO 13 (peptide)
peptide: MRYKVM
HELM: PEPTIDE1{M.R.Y.K.V.[dM].[am]}$$$$V2.0; N-terminus assumed
SMILES: CSCC[C@H](N)C(=O)N[C@@H](CCCNC(=N)N)C(=O)N[C@@H](Cc1ccc(O)cc1)C(=O)N[C@@H](CCCCN)C(=O)N[C@H](C(=O)N[C@H](CCSC)C(N)=O)C(C)C
B17: peptide of SEQ ID NO 11 (peptide)
peptide: KMKYKVM
HELM: PEPTIDE1{[CCCC(=O)[*:2]].K.M.K.Y.K.V.[dM].[am]}$$$$V2.0
SMILES: CCCC(=O)N[C@@H](CCCCN)C(=O)N[C@@H](CCSC)C(=O)N[C@@H](CCCCN)C(=O)N[C@@H](Cc1ccc(O)cc1)C(=O)N[C@@H](CCCCN)C(=O)N[C@H](C(=O)N[C@H](CCSC)C(N)=O)C(C)C
B18: peptide of SEQ ID NO 141 (peptide)
peptide: PKYKVM
HELM: PEPTIDE1{[CCCCCCCC(=O)[*:2]].P.K.Y.K.V.[dM].[am]}$$$$V2.0
SMILES: CCCCCCCC(=O)N1CCC[C@H]1C(=O)N[C@@H](CCCCN)C(=O)N[C@@H](Cc1ccc(O)cc1)C(=O)N[C@@H](CCCCN)C(=O)N[C@H](C(=O)N[C@H](CCSC)C(N)=O)C(C)C
B19: peptide of SEQ ID NO 15 (peptide)
peptide: MRYKVM
HELM: PEPTIDE1{[CCCC(=O)[*:2]].M.R.Y.K.V.[dM].[am]}$$$$V2.0
SMILES: CCCC(=O)N[C@@H](CCSC)C(=O)N[C@@H](CCCNC(=N)N)C(=O)N[C@@H](Cc1ccc(O)cc1)C(=O)N[C@@H](CCCCN)C(=O)N[C@H](C(=O)N[C@H](CCSC)C(N)=O)C(C)C

Columns and labels:
[1] = molecular target: T1, FPR1; assay: cell-based or functional assay
[2] = molecular target: T2, formyl peptide receptor 2 (FPR2); assay: cell-based or functional assay

| Binder | EC50 for [Ca2+] [1] | EC50 for [Ca2+] [2] |
| --- | --- | --- |
| B1 | > 10 µM | < 0.01 µM |
| B2 | > 10 µM | < 0.01 µM |
| B3 | > 10 µM | < 0.01 µM |
| B4 | > 10 µM | < 0.01 µM |
| B5 | > 10 µM | < 0.01 µM |
| B6 | > 10 µM | < 0.01 µM |
| B7 | > 10 µM | < 0.01 µM |
| B8 | > 10 µM | < 0.01 µM |
| B9 | > 10 µM | < 0.01 µM |
| B10 | > 10 µM | < 0.01 µM |
| B11 | > 10 µM | < 0.01 µM |
| B12 | > 10 µM | < 0.01 µM |
| B13 | > 10 µM | < 0.01 µM |
| B14 | > 10 µM | < 0.01 µM |
| B15 | > 10 µM | < 0.01 µM |
| B16 | > 10 µM | < 0.01 µM |
| B17 | > 10 µM | < 0.01 µM |
| B18 | > 10 µM | < 0.01 µM |
| B19 | > 10 µM | < 0.01 µM |
